# Data as given in patent publication US20240002820A1.
# Target: Uracil DNA glycosylase (UNG), endogenous in HuH-7 and U-2OS cells (UniProt P13051)
# Assay: cell-based or functional assay
# UniProt P13051, sequence (P13051 whole entry): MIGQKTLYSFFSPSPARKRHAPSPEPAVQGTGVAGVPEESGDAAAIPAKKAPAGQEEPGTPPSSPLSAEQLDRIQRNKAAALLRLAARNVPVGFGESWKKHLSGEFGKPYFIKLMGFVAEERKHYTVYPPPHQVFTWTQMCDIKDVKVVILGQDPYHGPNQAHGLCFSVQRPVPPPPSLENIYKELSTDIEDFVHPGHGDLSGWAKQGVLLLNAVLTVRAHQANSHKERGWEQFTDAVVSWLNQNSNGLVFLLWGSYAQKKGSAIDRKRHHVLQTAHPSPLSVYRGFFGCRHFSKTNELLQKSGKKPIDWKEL
substance,measurement,value
"Uracil Glycosylase Inhibitor (UGI), overexpressed from plasmid pCDNA3.1-UGI (from UniProt P14739 1-84)","Fold change relative to GFP in % of edited reads, C-to-A/G or indel, HuH-7 cells, BC22 + UGI overexpression (fold change relative to GFP)",-4.53
same,"Fold change relative to GFP in % of edited reads, C-to-A/G or indel, HuH-7 cells, BC22 + UGI overexpression + siRNA against UNG (fold change relative to GFP)",-4.76
same,"Fold change relative to GFP in % of edited reads, C-to-A/G or indel, HuH-7 cells, BC27 + UGI overexpression (fold change relative to GFP)",-9.3
same,"Fold change relative to GFP in % of edited reads, C-to-A/G or indel, HuH-7 cells, BC27 + UGI overexpression + siRNA against UNG (fold change relative to GFP)",-10.8
same,"Fold change relative to GFP in % of edited reads, C-to-A/G or indel, U-2OS cells, BC22 + UGI overexpression (fold change relative to GFP)",-2.97
same,"Fold change relative to GFP in % of edited reads, C-to-A/G or indel, U-2OS cells, BC22 + UGI overexpression + siRNA against UNG (fold change relative to GFP)",-3.46
same,"Fold change relative to GFP in % of edited reads, C-to-A/G or indel, U-2OS cells, BC27 + UGI overexpression (fold change relative to GFP)",-3.09
same,"Fold change relative to GFP in % of edited reads, C-to-A/G or indel, U-2OS cells, BC27 + UGI overexpression + siRNA against UNG (fold change relative to GFP)",-3.48
same,"Fold change relative to GFP in % of edited reads, C-to-T, HuH-7 cells, BC22 + UGI overexpression (fold change relative to GFP)",1.56
same,"Fold change relative to GFP in % of edited reads, C-to-T, HuH-7 cells, BC22 + UGI overexpression + siRNA against UNG (fold change relative to GFP)",1.57
same,"Fold change relative to GFP in % of edited reads, C-to-T, HuH-7 cells, BC27 + UGI overexpression (fold change relative to GFP)",2.13
same,"Fold change relative to GFP in % of edited reads, C-to-T, HuH-7 cells, BC27 + UGI overexpression + siRNA against UNG (fold change relative to GFP)",2.15
same,"Fold change relative to GFP in % of edited reads, C-to-T, U-2OS cells, BC22 + UGI overexpression (fold change relative to GFP)",1.21
same,"Fold change relative to GFP in % of edited reads, C-to-T, U-2OS cells, BC22 + UGI overexpression + siRNA against UNG (fold change relative to GFP)",1.22
same,"Fold change relative to GFP in % of edited reads, C-to-T, U-2OS cells, BC27 + UGI overexpression (fold change relative to GFP)",1.92
same,"Fold change relative to GFP in % of edited reads, C-to-T, U-2OS cells, BC27 + UGI overexpression + siRNA against UNG (fold change relative to GFP)",1.97
same,"Share of total edits that are C-to-T-only edits, HuH-7 cells, BC22 or BC27 + UGI overexpression",94%
